From IntAct's records for PubMed 8626665

B1: Transcription initiation factor IIA subunit 2 (Homo sapiens), P52657 (parent)
chain: MAYQLYRNTTLGNSLQESLDELIQSQQITPQLALQVLLQFDKAINAALAQRVRNRVNFRGSLNTYRFCDNVWTFVLNDVEFREVTELIKVDKVKIVACDGKNTGSNTTE
B2: Transcription initiation factor IIA subunit 2 (Homo sapiens), P52657 (parent)
chain: B1 chain
partner: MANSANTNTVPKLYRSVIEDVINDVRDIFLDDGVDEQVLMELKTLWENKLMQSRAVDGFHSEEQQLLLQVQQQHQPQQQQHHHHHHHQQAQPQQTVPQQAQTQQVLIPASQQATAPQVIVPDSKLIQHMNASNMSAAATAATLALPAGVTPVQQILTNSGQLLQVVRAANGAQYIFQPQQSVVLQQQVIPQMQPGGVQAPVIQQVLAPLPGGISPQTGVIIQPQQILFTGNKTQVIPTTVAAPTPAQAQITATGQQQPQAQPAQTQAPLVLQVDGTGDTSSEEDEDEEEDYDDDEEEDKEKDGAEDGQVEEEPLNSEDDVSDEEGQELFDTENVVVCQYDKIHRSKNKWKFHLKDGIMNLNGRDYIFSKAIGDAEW

Variants of: B1
Conditions: with tbp_human TBP

Effect of a mutation on the interaction, decreasing interaction:
D20A
Y65A

Variants of: B2
Conditions: with tf2aa_human GTF2A1, P52655

Effect of a mutation on the interaction, decreasing interaction:
F40A
D41A
E109A
K42A
